In patent US20220289850 (published 2022):
Positions count from the first letter of the chain named. Several values for one entry are separate records, joined by “and”; a condition that tells them apart may be missing. Identical values can stand only once.

T1: human integrin avb8 (human)
T1 chain 1: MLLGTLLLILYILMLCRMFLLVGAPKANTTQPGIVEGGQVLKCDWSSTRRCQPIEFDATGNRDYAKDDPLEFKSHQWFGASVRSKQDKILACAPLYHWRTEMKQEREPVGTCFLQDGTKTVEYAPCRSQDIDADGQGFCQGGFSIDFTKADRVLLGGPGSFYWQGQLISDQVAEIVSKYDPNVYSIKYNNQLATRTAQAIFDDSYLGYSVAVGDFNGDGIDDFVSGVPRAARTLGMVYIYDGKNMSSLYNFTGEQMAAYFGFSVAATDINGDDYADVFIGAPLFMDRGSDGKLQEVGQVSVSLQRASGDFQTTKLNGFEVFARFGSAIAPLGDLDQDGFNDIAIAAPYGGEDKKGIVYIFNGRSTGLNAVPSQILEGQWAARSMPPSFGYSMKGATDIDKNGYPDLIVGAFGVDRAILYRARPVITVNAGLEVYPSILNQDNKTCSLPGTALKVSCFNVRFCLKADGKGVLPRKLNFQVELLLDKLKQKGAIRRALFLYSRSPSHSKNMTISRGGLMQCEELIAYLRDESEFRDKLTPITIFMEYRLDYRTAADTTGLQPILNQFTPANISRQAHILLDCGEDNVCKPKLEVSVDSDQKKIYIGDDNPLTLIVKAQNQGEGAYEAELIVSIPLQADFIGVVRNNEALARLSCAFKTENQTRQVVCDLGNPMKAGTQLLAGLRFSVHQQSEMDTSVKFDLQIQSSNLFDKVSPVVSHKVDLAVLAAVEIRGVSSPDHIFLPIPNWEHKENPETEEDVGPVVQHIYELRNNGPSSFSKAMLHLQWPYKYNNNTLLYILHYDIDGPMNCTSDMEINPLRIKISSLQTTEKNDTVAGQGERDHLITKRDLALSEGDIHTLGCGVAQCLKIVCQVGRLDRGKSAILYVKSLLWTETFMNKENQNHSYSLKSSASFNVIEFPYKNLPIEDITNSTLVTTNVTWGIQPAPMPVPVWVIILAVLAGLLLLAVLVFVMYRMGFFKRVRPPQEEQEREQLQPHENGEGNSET
T1 chain 2: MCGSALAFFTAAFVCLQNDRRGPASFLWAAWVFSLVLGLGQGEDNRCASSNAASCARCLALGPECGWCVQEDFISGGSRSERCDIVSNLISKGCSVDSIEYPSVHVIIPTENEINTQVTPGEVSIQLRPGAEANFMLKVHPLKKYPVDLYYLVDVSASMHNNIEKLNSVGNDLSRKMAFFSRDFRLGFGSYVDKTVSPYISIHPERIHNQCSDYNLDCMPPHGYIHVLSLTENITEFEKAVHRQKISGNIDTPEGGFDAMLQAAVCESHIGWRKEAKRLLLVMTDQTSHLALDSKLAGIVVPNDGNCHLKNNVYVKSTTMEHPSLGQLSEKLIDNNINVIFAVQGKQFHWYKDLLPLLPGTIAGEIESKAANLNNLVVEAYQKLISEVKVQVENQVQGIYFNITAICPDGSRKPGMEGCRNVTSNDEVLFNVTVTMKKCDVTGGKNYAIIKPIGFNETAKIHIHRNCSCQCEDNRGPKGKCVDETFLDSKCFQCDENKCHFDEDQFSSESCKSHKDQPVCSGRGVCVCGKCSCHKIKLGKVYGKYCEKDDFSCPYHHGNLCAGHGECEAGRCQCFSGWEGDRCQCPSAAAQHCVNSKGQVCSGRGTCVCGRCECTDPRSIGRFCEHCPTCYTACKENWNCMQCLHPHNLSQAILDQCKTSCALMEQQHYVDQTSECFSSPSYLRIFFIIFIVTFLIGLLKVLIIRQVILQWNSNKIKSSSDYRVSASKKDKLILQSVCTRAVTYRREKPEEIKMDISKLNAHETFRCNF

B1: ADWA11 VH05/VK01 (VH05-2_VK01) Fab (antibody, V domains shown)
VH: EVQLVESGGGLVQPGGSLRLSCAASGFNIKDYYMNWVRQAPGKGLEWVGWIDPDNGNTIYDPKFQGRFTISADTSKNSAYLQMNSLRAEDTAVYYCARRLLMDYWGQGTLVTVSS
VL: DIQMTQSPSSLSASVGDRVTITCRSTKSLLHFNGNTYLFWYQQKPGKAPKRLIYYMSNLASGVPSRFSGSGSGTDFTLTISSLQPEDFATYYCMQSLEYPFTFGQGTKVEIK
B2: ADWA11 2.4 Fab (antibody, V domains shown)
VH: B1 VH with N55Q, D61E
VL: B1 VL with L30S, N58S, M94Q, Q105G
B3: Mouse hybridoma ADWA-11 Fab (antibody, V domains shown)
VH: EVQLQQSGAELVRPGAFVKLSCKASGFNIKDYYMNWVLQRPEQGLEWIGWIDPDNGNTIYDPKFQGKASITADTSSNTAYLQLSSLTSEDTAVYYCARRLLMDYWGQGTSVTVSS
VL: DIVMTQAAPSVPVTPGESVSISCRSTKSLLHFNGNTYLFWFLQRPGQSPQRLIYYMSNLASGVPDRFSGRGSGTDFTLRISRVEAEDVGVYYCMQSLEYPFTFGTGTKLEIK

Target: T1, human integrin avb8
Test: SPR 25C

| Binder | Kd |
| --- | --- |
| B1 | 0.209 nM and 0.118 nM |
| B2 | < 0.2 nM |
| B3 | 0.536 nM |
